The text below walks through data of patent US20060034759A1.

Test [1] addresses hMN-14×734 (Fab×Fab) bi-specific antibody. As to the kind of experiment: SE-HPLC shift with WI2 after incubation of radioiodinated bsAb in human serum at 37° C.
For test [2], the target named is carcinoembryonic antigen (CEA) (UniProt P06731). Briefly: analytical size exclusion HPLC, radioiodinated bsAb with 10-20× molar excess of CEA.
Test [3] has as its target Ac-Lys(DTPA)-Tyr-Lys(DTPA)-Lys(Tscg-Cys)-NH2 (IMP 192). Briefly: calculated from biodistribution in GW-39 tumor-bearing nude mice, 3 h after peptide, assuming one peptide bound to one bsAb.
Test [4] shares this target. As to the kind of experiment: calculated from biodistribution in GW-39 tumor-bearing nude mice, 1 h after peptide, assuming one peptide bound to one bsAb.
Test [5] shares this target. As to the kind of experiment: calculated from biodistribution in GW-39 tumor-bearing nude mice, 24 h after peptide, assuming one peptide bound to one bsAb.
The target is the same in test [6]. Briefly: calculated from biodistribution in GW-39 tumor-bearing nude mice, 30 min after peptide, assuming one peptide bound to one bsAb.
The target in test [7] is peptide containing a single HSG substituent and a thiol. Briefly: BIAcore, CM-5 chip derivatised with the mono HSG peptide. (In SPR one partner is held on a chip, and binding of the other changes the refractive index at the surface.)
Test [8] addresses DOTA-Phe-Lys(HSG)-D-Tyr-Lys(HSG)-NH2 (IMP 241). Briefly: in vivo pretargeting, GW-39 tumor-bearing nude mice, 3 h after 111In-IMP-241.
The target of test [9] is carcinoembryonic antigen (CEA) (UniProt P06731). Briefly: SE-HPLC, 125I-labeled bsMAb with an excess of CEA.
Test [10] has the same target. Briefly: immunoreactivity test of 99mTc-hMN-14 Fab′, method and antigen not stated.

Sequence of carcinoembryonic antigen (CEA) (P06731 35-685 limits assumed): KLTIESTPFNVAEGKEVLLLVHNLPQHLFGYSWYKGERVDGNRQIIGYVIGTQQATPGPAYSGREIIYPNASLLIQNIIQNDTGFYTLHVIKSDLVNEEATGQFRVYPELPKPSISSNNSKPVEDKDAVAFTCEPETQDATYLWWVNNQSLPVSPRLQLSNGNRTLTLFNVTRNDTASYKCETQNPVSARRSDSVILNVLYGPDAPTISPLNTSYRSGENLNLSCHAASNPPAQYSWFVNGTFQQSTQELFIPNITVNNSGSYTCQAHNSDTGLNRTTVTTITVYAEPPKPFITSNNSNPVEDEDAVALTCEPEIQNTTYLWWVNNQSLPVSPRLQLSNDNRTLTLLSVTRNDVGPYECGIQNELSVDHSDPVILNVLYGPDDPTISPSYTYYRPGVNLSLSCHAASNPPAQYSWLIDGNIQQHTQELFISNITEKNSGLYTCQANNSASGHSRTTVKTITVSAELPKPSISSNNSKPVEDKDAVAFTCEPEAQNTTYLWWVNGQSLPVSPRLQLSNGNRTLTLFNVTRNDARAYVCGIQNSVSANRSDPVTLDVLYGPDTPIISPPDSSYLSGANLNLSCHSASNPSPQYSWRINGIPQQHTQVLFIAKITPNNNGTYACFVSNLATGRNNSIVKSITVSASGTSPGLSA

For the molecule WI2 (rat anti-MN-14 idiotypic antibody), the % loss of binding capacity to WI2 after 48 h in serum in test [1] fell in the range of 3 to 5%.

Molecule “hMN-14×734 (Fab×Fab) bi-specific antibody (bispecific antibody)” displayed a percent of bsAb bound in [2] of 90%. Further, the % saturation on hMN-14 × 734 (available DTPA binding sites on the tumor bound bsAb filled with 99m-Tc-IMP-192) in test [3] was 25%; in [4] it was 25.8%; in [5], 28%; in test [6] it was 25.4%.

In the case of “hMN-14×m679 F(ab′)2 bsMAb (bispecific antibody)”, the Kd in test [7] was determined as 1.5 nM. In addition, the ratio of the % ID/g of the peptide compared to the bsMAb in the tumor in [8] came to 3.9. Besides, the percent of radiolabeled product shifting to a higher molecular weight in test [9] is > 90%.

B1: 99mTc-hMN-14 Fab′ (humanized MN-14 Fab′-SH) (Fab, INN chains, looked up, V domains shown)
VH: EVQLVESGGGVVQPGRSLRLSCSASGFDFTTYWMSWVRQAPGKGLEWIGEIHPDSSTINYAPSLKDRFTISRDNAKNTLFLQMDSLRPEDTGVYFCASLYFGFPWFAYWGQGTPVTVSS
VL: DIQLTQSPSSLSASVGDRVTITCKASQDVGTSVAWYQQKPGKAPKLLIYWTSTRHTGVPSRFSGSGSGTDFTFTISSLQPEDIATYYCQQYSLYRSFGQGTKVEIK
modifications: Fab' 99mTc label
In turn, B1 returned an immunoreactive fraction in test [10] of 92%.

Usually Kd stands for the equilibrium constant for the complex coming apart. A high value points to weaker binding.
